Experiments:
[1] = target: T1, tubby-N (N-terminus of mouse tubby, 1M-242P), GST-free (mouse, UniProt P50586 1-242); experiment: clonal phage on immobilized tubby-N, plaque assay
T1 construct: range 1-242; Expressed as GST-tubby-N in E. coli BL21(DE3), GST removed by 3C protease cleavage; also called GST-free tubby-N
T1 sequence (looked up): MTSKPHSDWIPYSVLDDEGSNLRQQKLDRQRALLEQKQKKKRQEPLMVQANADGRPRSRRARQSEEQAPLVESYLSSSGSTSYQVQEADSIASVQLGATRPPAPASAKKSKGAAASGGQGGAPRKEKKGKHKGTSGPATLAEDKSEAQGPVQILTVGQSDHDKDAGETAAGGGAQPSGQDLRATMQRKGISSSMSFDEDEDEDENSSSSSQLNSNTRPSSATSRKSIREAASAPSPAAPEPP

[2] = target: T2, FLAG-tubby-F (full-length mouse tubby with N-terminal FLAG tag) (mouse, UniProt P50586 1-505); experiment: clonal phage on immobilized FLAG-tubby-F, plaque assay
T2 construct: mature; also called FLAG-tagged tubby; tubby-vesicles
T2 sequence: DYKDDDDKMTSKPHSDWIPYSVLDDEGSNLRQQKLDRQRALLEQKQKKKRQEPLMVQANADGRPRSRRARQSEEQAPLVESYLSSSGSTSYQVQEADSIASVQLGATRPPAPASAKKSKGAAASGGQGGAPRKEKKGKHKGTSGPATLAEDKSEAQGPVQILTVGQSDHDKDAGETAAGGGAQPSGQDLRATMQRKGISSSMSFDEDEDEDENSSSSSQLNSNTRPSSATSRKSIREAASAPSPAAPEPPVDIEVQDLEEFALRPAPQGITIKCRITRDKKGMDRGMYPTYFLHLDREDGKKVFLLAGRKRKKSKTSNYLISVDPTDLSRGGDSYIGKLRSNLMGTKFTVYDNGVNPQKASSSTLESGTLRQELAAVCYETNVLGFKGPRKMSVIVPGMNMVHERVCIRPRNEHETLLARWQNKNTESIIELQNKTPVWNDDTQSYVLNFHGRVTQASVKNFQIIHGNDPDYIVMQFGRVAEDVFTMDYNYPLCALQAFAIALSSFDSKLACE

[3] = target: T3, Axl-Fc (Axl extracellular domain fused to human IgG1 Fc fragment) (human); experiment: clonal phage on immobilized Axl-Fc, plaque assay
T3 construct: extracellular domain; Bought (R&D Systems)
T3 sequence (P30530 whole entry, the tested form may be a part): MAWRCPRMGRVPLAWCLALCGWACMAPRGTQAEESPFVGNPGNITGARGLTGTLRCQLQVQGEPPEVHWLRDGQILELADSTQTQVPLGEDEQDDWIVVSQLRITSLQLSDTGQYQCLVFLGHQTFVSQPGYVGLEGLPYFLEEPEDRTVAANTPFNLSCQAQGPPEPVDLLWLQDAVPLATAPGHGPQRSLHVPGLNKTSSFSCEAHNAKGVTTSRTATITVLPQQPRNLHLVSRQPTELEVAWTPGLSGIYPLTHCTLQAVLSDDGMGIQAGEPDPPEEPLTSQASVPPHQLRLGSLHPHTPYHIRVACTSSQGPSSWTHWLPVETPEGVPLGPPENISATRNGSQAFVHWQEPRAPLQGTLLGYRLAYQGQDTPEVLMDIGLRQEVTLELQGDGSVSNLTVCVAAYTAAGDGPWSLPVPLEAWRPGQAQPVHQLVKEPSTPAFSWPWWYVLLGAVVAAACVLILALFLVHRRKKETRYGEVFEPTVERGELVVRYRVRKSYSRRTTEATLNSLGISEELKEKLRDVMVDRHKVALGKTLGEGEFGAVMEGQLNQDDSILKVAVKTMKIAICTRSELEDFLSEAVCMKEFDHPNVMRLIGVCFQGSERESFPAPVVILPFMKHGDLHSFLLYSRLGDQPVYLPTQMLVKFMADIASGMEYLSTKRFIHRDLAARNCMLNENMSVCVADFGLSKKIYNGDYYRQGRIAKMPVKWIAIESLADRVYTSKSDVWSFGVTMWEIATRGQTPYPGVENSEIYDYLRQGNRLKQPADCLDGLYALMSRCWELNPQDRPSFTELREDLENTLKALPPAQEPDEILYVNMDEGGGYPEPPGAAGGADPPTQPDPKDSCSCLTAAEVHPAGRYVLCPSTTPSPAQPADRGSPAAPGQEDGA

[4] = target: T2, FLAG-tubby-F (full-length mouse tubby …); experiment: GST pull-down: GST-tubby with lysate of cells expressing the FLAG-tagged protein, glutathione resin, Western blot with anti-FLAG mAb
[5] = target: T4, FLAG-tagged Tulp2 (full-length mouse Tulp2 with N-terminal FLAG tag) (mouse, UniProt P46686 1-562); experiment: as above
T4 construct: mature; Expressed from pcDNA3 in Neuro-2a cells; used as cell lysate or on membrane vesicles
T4 sequence: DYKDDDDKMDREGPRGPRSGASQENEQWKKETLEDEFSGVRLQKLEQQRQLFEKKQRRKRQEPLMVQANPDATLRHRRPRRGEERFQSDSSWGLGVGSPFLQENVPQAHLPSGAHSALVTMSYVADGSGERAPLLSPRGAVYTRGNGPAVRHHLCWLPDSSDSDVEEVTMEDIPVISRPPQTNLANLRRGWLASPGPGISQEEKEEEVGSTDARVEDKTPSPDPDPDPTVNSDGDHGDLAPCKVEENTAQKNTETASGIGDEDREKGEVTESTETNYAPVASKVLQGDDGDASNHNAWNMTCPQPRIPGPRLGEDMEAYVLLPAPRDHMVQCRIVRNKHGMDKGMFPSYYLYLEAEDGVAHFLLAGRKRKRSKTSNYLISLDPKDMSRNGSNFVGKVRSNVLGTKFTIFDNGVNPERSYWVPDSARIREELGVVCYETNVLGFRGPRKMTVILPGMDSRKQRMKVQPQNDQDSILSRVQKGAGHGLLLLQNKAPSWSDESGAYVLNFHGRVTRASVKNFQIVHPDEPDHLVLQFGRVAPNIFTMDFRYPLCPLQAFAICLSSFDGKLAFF

B1: ATP-binding cassette F1 (Abcf1) 57K-196G, phage clone (other, mouse, UniProt Q6P542 57-196, looked up)
chain: KLQKEKEQQQQQQQQKKKRDTRKGRRKKDVDDDSDERVLMERLKQLSVPASDEEDEVPAPIPRGRKKAKGGNVFEALIQDDSEEEEEEEENRVLKPAKPEKNRINKAVAEEPPGLRSKKGKEEKSKGKAKSKPAAADSEG
notes: Minimal overlap of 2 independent clones; For Y2H recloned into pGAD424
Q: With B1 as the binder, how does the “Binding to tubby-N (binding specificity of clonal phage vs. control phage)” value [1] read?
A: ~68.2 X (fold)

Q: What about the “Binding to tubby-F (binding specificity to FLAG-tubby-F vs. to GFP-FLAG)” value [2] of the same binder?
A: ~27.2 X (fold)

B2: IQ motif containing GTPase activating protein 2 (Iqgap2) 1232E-1368E, phage clone (other, mouse, UniProt Q3UQ44 1232-1368, looked up)
chain: EKSDLLNELLESLGEVPTVESFLGEGAVDPNDPNKENTLNQLSKTEISLSLTSKYDVKDGEAVDGRSLMIKTKKLIIDVTRNQPGSTLTEILETPATGQQELEHAKDMESRAVVDSRTPEEGKQSQAVIEDARLPLE
notes: range 1232-1368
Q: For B2, which “Binding to tubby-N (binding specificity of clonal phage vs. control phage)” value [1] is on record?
A: ~53.2 X (fold)

Q: What about the “Binding to tubby-F (binding specificity to FLAG-tubby-F vs. to GFP-FLAG)” value [2] of the same binder?
A: ~1.8 X (fold)

B3: High mobility group box 2 (Hmgb2) 89K-188E, phage clone (other, mouse, UniProt P30681 89-188, looked up)
chain: KKDPNAPKRPPSAFFLFCSENRPKIKIEHPGLSIGDTAKKLGEMWSEQSAKDKQPYEQKAAKLKEKYEKDIAAYRAKGKSEAGKKGPGRPTGSKKKNEPE
notes: range 89-188; Minimal overlap of 5 independent clones; For Y2H recloned into pGAD424
Q: Which “Binding to tubby-N (binding specificity of clonal phage vs. control phage)” value [1] does the source give for B3 here?
A: ~312 X (fold)

Q: What about the “Binding to tubby-F (binding specificity to FLAG-tubby-F vs. to GFP-FLAG)” value [2] of the same binder?
A: ~21.7 X (fold)

B4: PC4 and SFRS1 interacting protein 1 (Psip1) 152K-219K, phage clone (other, mouse, UniProt Q99JF8 152-219, looked up)
chain: KAEKQVDTEEAGMVTAATASNVKASPKRGRPAATEVKIPKPRGRPKVVKQPCPSDGDMVIDEDKSKKK
notes: range 152-219; Minimal overlap of 4 independent clones; For Y2H recloned into pGAD424
Q: How did the “Binding to tubby-N (binding specificity of clonal phage vs. control phage)” value [1] turn out when B4 was run?
A: ~196 X (fold)

Q: And the “Binding to tubby-F (binding specificity to FLAG-tubby-F vs. to GFP-FLAG)” value [2]?
A: ~24 X (fold)

B5: Microtubule-associated protein 7 (Mtap7) 23A-114R, phage clone (other, mouse, UniProt O88735 23-114, looked up)
chain: ASDGYKVQEKRTAPSRPTSTVSGQTSNHSGNKPDPPPVLRVDDRQRLARERREEREKQLAARETVWLEREERARQHYERHLEARKKKLEDQR
notes: range 23-114; For Y2H recloned into pGAD424
Q: Which results are given for B5?
A: Binding to tubby-N (binding specificity of clonal phage vs. control phage) [1]: ~3.5 X (fold); Binding to tubby-F (binding specificity to FLAG-tubby-F vs. to GFP-FLAG) [2]: ~3.8 X (fold)

B6: Structure specific recognition protein 1 (Ssrp1) 486E-619G, phage clone (other, mouse, UniProt Q08943 486-619, looked up)
chain: EEEEDVAEEFDSNASASSSSNEGDSDREEKKREQLKRAKMAKDRKSRRKSSEAKKGKDPNAPKRPMSAYMLWLNASREKIKSDHPGISITDLSKKAGEIWKGMSKEKKEEWDRKAEDARREYEKAMKEYEGGRG
notes: range 486-619; Minimal overlap of 2 independent clones; For Y2H recloned into pGAD424
Q: With B6 as the binder, how does the “Binding to tubby-N (binding specificity of clonal phage vs. control phage)” value [1] read?
A: ~157 X (fold)

Q: What about the “Binding to tubby-F (binding specificity to FLAG-tubby-F vs. to GFP-FLAG)” value [2] of the same binder?
A: ~4.5 X (fold)

B7: CCCTC-binding factor (Ctcf) 136G-400T, phage clone (other, mouse, UniProt Q61164 136-400, looked up)
chain: GAYENEVSKEGLAESEPMICHTLPLPEGFQVVKVGANGEVETLEQGELPPQEDSSWQKDPDYQPPAKKTKKTKKSKLRYTEEGKDVDVSVYDFEEEQQEGLLSEVNAEKVVGNMKPPKPTKIKKKGVKKTFQCELCSYTCPRRSNLDRHMKSHTDERPHKCHLCGRAFRTVTLLRNHLNTHTGTRPHKCPDCDMAFVTSGELVRHRRYKHTHEKPFKCSMCDYASVEVSKLKRHIRSHTGERPFQCSLCSYASRDTYKLKRHMRT
notes: range 136-400; For Y2H recloned into pGAD424
Q: With B7 as the binder, how does the “Binding to tubby-N (binding specificity of clonal phage vs. control phage)” value [1] read?
A: ~117 X (fold)

Q: What about the “Binding to tubby-F (binding specificity to FLAG-tubby-F vs. to GFP-FLAG)” value [2] of the same binder?
A: ~44.9 X (fold)

B8: PH181: SPRY domain containing 3 (Spryd3) 31I-215S, phage clone (other, mouse)
chain: IREIREVRAFRYQERFKHILVDGDTLSYHGNSGEVGCYVASRPLTKDSNYFEVSIVDSGVRGTIAVGLVPQYYSLDHQPGWLPDSVAYHADDGKLYNGRAKGRQFGSKCNSGDRIGCGIEPVSFDVQTAQIFFTKNGKRVGSTIMPMSPDGLFPAVGMHSLGEEVRLHLNAELGREDDSVMMVDS
notes: range 31-215; Frequency 8
Q: How did the “Binding activity (pfu ratio of clonal phage binding to immobilized Axl-Fc versus blank)” value [3] turn out when B8 was run?
A: ~1e+06 X (fold)

B9: PH207: Microfibrillar-associated protein IA or IB (Mfap1) 160K-290E, phage clone (other)
chain: KNEEMEVMEVEDEGRSGEESESESEYEEYTDSEDEMEPRLKPVFIRKKDRVTVQEREAEALKQKELEQEAKRMAEERRKYTLKIVEEETKKELEENKRSLAALDALNTDDENDEEEYEAWKVRELKRIKRE
notes: Frequency 4; not shown: T7 capsid 10B fusion partner, linker/3C cleavage site and C-terminal biotinylation tag of the phage display construct
Q: B9 was tested. Which “Binding activity (pfu ratio of clonal phage binding to immobilized Axl-Fc versus blank)” value [3] did it give?
A: ~36700 X (fold)

B10: Tubby like protein 1 (Tulp1) 125D-243E, phage clone (other, mouse, UniProt Q9Z273 125-243, looked up)
chain: DDDEEEEEKKEGKKEKSSLPPKKAPKEREKKAKALGPRGDVGSPDAPRKPLRTKKKEVGEGTKLRKAKKKGPGETDKDPAGSPAALRKEFPAAMFLVGEGGAAEKGVKKKGPPKGSEEE
notes: range 125-243; For Y2H recloned into pGAD424
Q: Which results are given for B10?
A: Binding to tubby-N (binding specificity of clonal phage vs. control phage) [1]: ~49 X (fold); Binding to tubby-F (binding specificity to FLAG-tubby-F vs. to GFP-FLAG) [2]: ~29.1 X (fold)

B11: Zinc finger E-box binding homeobox 1 (Zeb1) 903E-1021E, phage clone (other, mouse, UniProt Q64318 903-1021, looked up)
chain: EHTGKRPHECGICRKAFKHKHHLIEHMRLHSGEKPYQCDKCGKRFSHSGSYSQHMNHRYSYCKRGAEDRDAMEQEDAGPEVLPEVLATEHVGARASPSQADSDERESLTREEDEDSEKE
notes: range 903-1021; Residues are the minimal overlap of 2 independent clones; For Y2H the insert was recloned into pGAD424
Q: What does the source list for B11?
A: Binding to tubby-N (binding specificity of clonal phage vs. control phage) [1]: ~284 X (fold); Binding to tubby-F (binding specificity to FLAG-tubby-F vs. to GFP-FLAG) [2]: ~28.7 X (fold)

B12: PH194: Growth arrest specific 6 (Gas6) 43Q-148R, phage clone (ligand, mouse, UniProt Q61592 43-148, looked up)
chain: QRRAYQVFEEAKQGHLERECVEEVCSKEEAREVFENDPETEYFYPRYQECMRKYGRPEEKNPDFAKCVQNLPDQCTPNPCDKKGTHICQDLMGNFFCVCTDGWGGR
notes: range 43-148
Q: For B12, which “Binding activity (pfu ratio of clonal phage binding to immobilized Axl-Fc versus blank)” value [3] is on record?
A: ~40 X (fold)

B13: Zinc finger protein 609 (Zfp609) 1M-183E, phage clone (other, mouse, UniProt Q8BZ47 1-183, looked up)
chain: MSLSSGACGGKGVDANPVETYDSGDEWDIGVGNLIIDLDADLEKDQQKLEMSGSKEVGIPAPNAVATLPDNIKFVTPVPGPQGKEGKSKSKRSKSGKDASKPTPGTSLFSPSEGAASKKEVQGRAGDGASAGGLVAAVAPKGSEKAAKASRSVAGSKKEKENSSSKGKKERSEGVGTCSEKDP
notes: range 1-183; Minimal overlap of 2 independent clones; For Y2H recloned into pGAD424
Q: For B13, which “Binding to tubby-N (binding specificity of clonal phage vs. control phage)” value [1] is on record?
A: ~53.2 X (fold)

Q: What about the “Binding to tubby-F (binding specificity to FLAG-tubby-F vs. to GFP-FLAG)” value [2] of the same binder?
A: ~2.3 X (fold)

B14: GST-tubby-F (GST fused to full-length mouse tubby) (other, UniProt P50586 1-505, looked up)
chain: MTSKPHSDWIPYSVLDDEGSNLRQQKLDRQRALLEQKQKKKRQEPLMVQANADGRPRSRRARQSEEQAPLVESYLSSSGSTSYQVQEADSIASVQLGATRPPAPASAKKSKGAAASGGQGGAPRKEKKGKHKGTSGPATLAEDKSEAQGPVQILTVGQSDHDKDAGETAAGGGAQPSGQDLRATMQRKGISSSMSFDEDEDEDENSSSSSQLNSNTRPSSATSRKSIREAASAPSPAAPEPPVDIEVQDLEEFALRPAPQGITIKCRITRDKKGMDRGMYPTYFLHLDREDGKKVFLLAGRKRKKSKTSNYLISVDPTDLSRGGDSYIGKLRSNLMGTKFTVYDNGVNPQKASSSTLESGTLRQELAAVCYETNVLGFKGPRKMSVIVPGMNMVHERVCIRPRNEHETLLARWQNKNTESIIELQNKTPVWNDDTQSYVLNFHGRVTQASVKNFQIIHGNDPDYIVMQFGRVAEDVFTMDYNYPLCALQAFAIALSSFDSKLACE
notes: mature; Expressed in E. coli BL21(DE3) from pGEX-2T; not shown: glutathione S-transferase of pGEX-2T (Schistosoma japonicum)
Q: What does the source list for B14?
A: binding result [4]: no binding; binding result [5]: no binding

Source: US20110207628A1 (UNIVERSITY OF MIAMI, published 2011)
